For data set [1], the target named is T1, hORC1 BAH F89S (human, UniProt Q13415 45-171, F89S).
T1 sequence: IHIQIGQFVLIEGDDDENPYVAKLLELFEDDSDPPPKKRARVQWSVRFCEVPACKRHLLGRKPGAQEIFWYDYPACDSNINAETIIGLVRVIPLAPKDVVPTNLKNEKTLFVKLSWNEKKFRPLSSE
Description: EMSA. On the technique in general: A gel shift assay detects complexes by their altered migration in electrophoresis.

In data set [2] the target is T2, hORC1 BAH E127G (human, UniProt Q13415 45-171, E127G).
T2 sequence: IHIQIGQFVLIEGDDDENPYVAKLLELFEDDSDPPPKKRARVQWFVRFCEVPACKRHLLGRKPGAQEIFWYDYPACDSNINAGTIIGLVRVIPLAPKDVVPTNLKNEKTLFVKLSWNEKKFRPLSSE
Description: EMSA.

Results on one molecule are retold here after PMC4654454 (ACS chemical biology, 2015).

B1: 14-bp DNA duplex (dsDNA)
DNA 1: GGAGGCCTCCTGCT
DNA 2: AGCAGGAGGCCTCC
In the case of B1, the binding result in data set [1] and in data set [2] was “binds” in each case.
